In patent US20250170267A1, “ANTIBODY-DRUG CONJUGATE PRECURSOR AND INTERMEDIATE FOR SYNTHESIS THEREOF” (UBE Corporation, priority 2022, published 2025):
Numbered stars: 1 amine (or outer) side, 2 acyl side, 3 side chain; on linkers, the order of the positions; unused ones are H or OH. Square brackets hold non-standard residues; d marks the D form. Peptide text beside a SMILES is read from it. * marks the point of attachment. Exatecan = CC[C@@]1(O)C(=O)OCc2c1cc1n(c2=O)Cc2c-1nc1cc(F)c(C)c3c1c2[C@@H](N*)CC3; Dolaproine = CO[C@@H]([C@@H]1CCCN1)[C@@H](C)C(=O)O; Hexanoyl(6-maleimido) = O=C1C=CC(=O)N1CCCCCC(=O)*; Propanoyl(3-maleimido) = O=C1C=CC(=O)N1CCC(=O)*; Dil = CC[C@H](C)[C@H](NC)[C@@H](CC(=O)O)OC; PABC = O=C(OCc1ccc(N[*:1])cc1)[*:2]; NHCH2OCH2CO = O=C(COCN[*:1])[*:2]; X1 = C[C@@H](N*)[C@@H](O)c1ccccc1; hSer(lactone) = O=C1OCC[C@@H]1N*; Cit = NC(=O)NCCC[C@H](N)C(=O)O; PEG4 = NCCOCCOCCOCCOCCC(=O)O; NMeV = CN[C@H](C(=O)O)C(C)C

How the values were obtained:
[1] = Retention time in HPLC (index of hydrophilicity); type: physicochemical; details: BEH C18, 0.1% formic acid/acetonitrile gradient, 40° C.
Protocol: As an index of hydrophilicity of the Examples, the retention time (RT) in HPLC analysis was measured, and compared.
Device: LCMS2020 system Shimadzu Corporation
Column: Acquity UPLC (registered trademark) BEH C18 (2.1×50 mm, 1.7 μm)_Waters
Eluent: Solution A: 0.1% aqueous solution of formic acid, Solution B: 0.1% solution of formic acid in acetonitrile

[2] = Pharmacokinetic test (serum trastuzumab residual rate); type: in vivo; details: female BALB/c mouse, intravenous; 3 days vs 5 minutes after administration
Text: After a prescribed time period, the blood was collected from the jugular vein or abdominal vein, and centrifuged to prepare a serum. The resulting serum was cryopreserved until the measurement.

human liver Cathepsin B = target: T1, human liver Cathepsin B (Homo sapiens, UniProt P07858); experiment: Metabolism test using human liver Cathepsin B; type: in vitro ADME; details: 37° C., 24 hours, released drug, LC-MS/MS
T1 construct: human liver Cathepsin B (manufactured by Sigma-Aldrich Co. LLC, Cat No. C8571 25 μg/vial); purchased Sigma-Aldrich Co. LLC C8571; host or cells: human liver
Protocol: To human liver Cathepsin B (manufactured by Sigma-Aldrich Co. LLC, Cat No. C8571 25 μg/vial)(corresponding to 400 Unit/mL)(5 μL), X10 Catabolic Buffer (manufactured by SEKISUI-Xenotech, LLC., K5200)(10 μL), 2.5 mM Bovine Serum Albumin (manufactured by FUJIFILM Wako Pure Chemical Corporation, Cat No. 012-15093)(5 μL), and distilled water (manufactured by FUJIFILM Wako Pure Chemical Corporation, for HPLC)(55 μL) was added 1.2 μM test compound (antibody-drug conjugate prepared in ADC Production examples)(25 μL) dissolved in PBS to prepare a reaction solution. After the reaction solution was incubated at 37° C. for 24 hours, “an antitumor drug molecule or an analog thereof, or a derivative thereof” released from the antibody-drug conjugate into the reaction solution was quantified by LC-MS/MS (high performance liquid chromatography/mass spectrometer system) under the following conditions. LC-MS/MS analysis conditions
(§1) LC: LC20 or LC30 HPLC system manufactured by Shimadzu Corporation
(§2) Column: Phenomenex Kinetex C18 (50×2.1 mm, 2.6 μm)
(§3) Column temperature: 40° C.
(§4) Mobile phase A: 0.1% aqueous solution of formic acid, Mobile phase B: 0.1% solution of formic acid in a mixture of 50% acetonitrile/methanol
(§5) Mode: Positive or Negative
(§6) The release rate (%) of drug was calculated by the following equation.

human liver lysosome = experiment: Metabolism test using human liver lysosomal fraction; type: in vitro ADME; details: 37° C., 24 hours, released drug, LC-MS/MS
Protocol: To a reaction composition solution (X10 Catabolic Buffer (manufactured by SEKISUI-Xenotech, LLC., K5200))(60 μL) in which human liver lysosome (manufactured by SEKISUI-Xenotech, LLC., Cat No. H610.L 2.5 mg/mL)(corresponding to 0.125 mg of protein) was suspended and distilled water (manufactured by FUJIFILM Wako Pure Chemical Corporation, for HPLC)(10 μL) was added 1.2 μM test compound (antibody-drug conjugate produced in ADC Production examples)(25 μL) dissolved in PBS to prepare a reaction solution. After the reaction solution was incubated at 37° C. for 24 hours, “an antitumor drug molecule or an analog thereof, or a derivative thereof” released from the antibody-drug conjugate into the reaction solution was quantified by LC-MS/MS (high performance liquid chromatography/mass spectrometer system) under the following conditions. LC-MS/MS analysis conditions
as §1, §2, §3, §4, §5, §6

human topoisomerase I = target: T2, human topoisomerase I (Homo sapiens, UniProt P11387); experiment: Topoisomerase I activity inhibition test; type: biochemical; details: supercoiled plasmid DNA, 37° C., 60 minutes
T2 construct: purchased Sigma T9069
T2 sequence (P11387 1-765): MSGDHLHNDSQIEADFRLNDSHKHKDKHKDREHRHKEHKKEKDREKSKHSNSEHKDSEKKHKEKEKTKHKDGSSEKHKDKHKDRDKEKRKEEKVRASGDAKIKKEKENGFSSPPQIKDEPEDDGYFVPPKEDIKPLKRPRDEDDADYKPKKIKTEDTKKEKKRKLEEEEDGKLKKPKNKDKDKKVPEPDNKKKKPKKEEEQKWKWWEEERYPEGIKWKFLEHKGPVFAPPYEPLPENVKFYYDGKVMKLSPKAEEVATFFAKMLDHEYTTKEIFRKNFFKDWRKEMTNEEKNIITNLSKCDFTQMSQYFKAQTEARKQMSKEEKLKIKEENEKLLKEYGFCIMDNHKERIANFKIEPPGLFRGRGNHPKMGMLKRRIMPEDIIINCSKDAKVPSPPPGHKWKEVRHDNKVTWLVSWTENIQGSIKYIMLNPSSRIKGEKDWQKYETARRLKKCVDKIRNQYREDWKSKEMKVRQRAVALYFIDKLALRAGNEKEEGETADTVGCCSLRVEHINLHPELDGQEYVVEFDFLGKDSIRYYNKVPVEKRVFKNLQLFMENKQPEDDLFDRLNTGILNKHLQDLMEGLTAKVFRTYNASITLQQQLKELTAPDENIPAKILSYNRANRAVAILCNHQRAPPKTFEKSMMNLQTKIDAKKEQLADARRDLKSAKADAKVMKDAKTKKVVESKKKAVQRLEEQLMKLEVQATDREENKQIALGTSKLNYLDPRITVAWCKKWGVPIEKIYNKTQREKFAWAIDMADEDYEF
Protocol: For measuring topoisomerase I activity inhibitory actions, Human DNA Topoisomerase I Assay Kit (manufactured by ProFoldin, HRA100K) was used. A human topoisomerase I (manufactured by Sigma, T9069) was added to a Tris-HCl buffer containing KCl, DTT, MgCl2, EDTA, and BSA to prepare a reaction solution. The reaction solution (35.2 μL) and a test compound solution (4.4 μL) prepared by an aqueous solution containing 10% DMSO were mixed in a 1.5 mL microtube, and the resulting mixture was reacted at 37° C. for 10 minutes. Subsequently, a supercoiled plasmid DNA (4.4 μL) was added thereto, and the resulting mixture was reacted at 37° C. for 60 minutes. After the reaction, the solution was added to a 96 well plate (manufactured by Corning Inc., 3904) at 40 μL/well, and a Dye H19 solution (250 μL) diluted 10 times with the buffer included with the kit was added thereto. A microplate reader (Infinite F500, manufactured by TECAN) was used to measure the fluorescence intensity (excitation wavelength: 485 nm, detection wavelength: 535 nm) of each well.
The topoisomerase I activity inhibition rate (%) was calculated by the following equation.

In the case of `CC[C@H](C)[C@@H]([C@@H](CC(=O)N1CCC[C@H]1[C@H](OC)[C@@H](C)C(=O)N[C@H](C)[C@@H](O)c1ccccc1)OC)N(C)C(=O)[C@@H](NC(=O)[C@H](C(C)C)N(C)C(=O)OCc1ccc(NC(=O)[C@H](CCCNC(N)=O)NC(=O)[C@@H](NC(=O)[C@H](CC(=O)N[C@H]2CCOC2=O)NC(=O)CCOCCOCCOCCOCCNC(=O)CCN2C(=O)C=CC2=O)C(C)C)cc1)C(C)C` [Example 1] ({Propanoyl(3-maleimido)-PEG4}-D(hSer(lactone))V[Cit][PABC][NMeV]V[Dil][Dolaproine]-X1), the “Retention time in HPLC measurement” value ([1]; Table 5 (MMAE-type precursors)) is reported as 1.12 min, the “Serum trastuzumab residual rate after 3 days from administration (%)” value (shortened to “Serum trastuzumab residual rate … (%)”) [2] is reported as 35% and the “Release rate (%) of drug from ADC” value (human liver Cathepsin B) is reported as 71%. The “Release rate (%) of drug from ADC” value (human liver lysosome) was 68%.

For `CC[C@@]1(O)C(=O)OCc2c1cc1n(c2=O)Cc2c-1nc1cc(F)c(C)c3c1c2[C@@H](NC(=O)COCNC(=O)CNC(=O)[C@H](Cc1ccccc1)NC(=O)CNC(=O)CNC(=O)[C@H](CC(=O)N[C@H]1CCOC1=O)NC(=O)CCCCCN1C(=O)C=CC1=O)CC3` [Example 13] ({Hexanoyl(6-maleimido)}-D(hSer(lactone))GGFG[NHCH2OCH2CO]-Exatecan), the “Serum trastuzumab residual rate … (%)” value [2] was 25%, the “Release rate (%) of drug from ADC” value (human liver Cathepsin B) was 24% and the “Release rate (%) of drug from ADC” value (human liver lysosome) was 76%.

For `C=C1C[C@@H]2CC[C@@]34C[C@H]5O[C@H]6[C@@H](O3)[C@H]3O[C@H](CC[C@@H]3O[C@H]6[C@H]5O4)CC(=O)C[C@@H]3[C@@H](OC)[C@@H](C[C@H](O)CNC(=O)OCc4ccc(NC(=O)[C@H](CCCNC(N)=O)NC(=O)[C@@H](NC(=O)[C@H](CC(=O)N[C@H]5CCOC5=O)NC(=O)CN(C)CCNC(=O)CCOCCOCCOCCOCCNC(=O)[C@H](CNC(=O)CCP(=O)(O)O)N5C(=O)C=CC5=O)C(C)C)cc4)O[C@H]3C[C@H]3O[C@@H](CC[C@@H]1O2)C[C@@H](C)C3=C` [Example 16], the “Retention time in HPLC measurement” value ([1]; Table 6 (eribulin precursors)) was 0.97 min, the “Serum trastuzumab residual rate … (%)” value [2] was 64% and the “Release rate (%) of drug from ADC” value (human liver Cathepsin B) was 62%. For the same compound, the “Release rate (%) of drug from ADC” value (human liver lysosome) was 72%.

For `C=C1C[C@@H]2CC[C@@]34C[C@H]5O[C@H]6[C@@H](O3)[C@H]3O[C@H](CC[C@@H]3O[C@H]6[C@H]5O4)CC(=O)C[C@@H]3[C@@H](OC)[C@@H](C[C@H](O)CNC(=O)OCc4ccc(NC(=O)[C@H](CCCNC(N)=O)NC(=O)[C@@H](NC(=O)[C@H](CC(=O)N[C@H]5CCOC5=O)NC(=O)[C@H](CCCCN(C)C)NC(=O)CCOCCOCCOCCOCCNC(=O)[C@H](CNC(=O)CCP(=O)(O)O)N5C(=O)C=CC5=O)C(C)C)cc4)O[C@H]3C[C@H]3O[C@@H](CC[C@@H]1O2)C[C@@H](C)C3=C` [Example 18], the “Retention time in HPLC measurement” value ([1]; Table 6 (eribulin precursors)) was 0.96 min, the “Serum trastuzumab residual rate … (%)” value [2] was 73% and the “Release rate (%) of drug from ADC” value (human liver Cathepsin B) was 64%. For the same compound, the “Release rate (%) of drug from ADC” value (human liver lysosome) was 75%.

`CC[C@@]1(O)C(=O)OCc2c1cc1n(c2=O)Cc2c-1nc1cc(F)c(C)c3c1c2[C@@H](NC(C)=O)CC3` [Example U-001] showed an IC50 (human topoisomerase I) of no more than 15 µM.

For `CC[C@@]1(O)C(=O)OCc2c1cc1n(c2=O)Cc2c-1nc1cc(F)c(C)c3c1c2[C@@H](NC(=O)CCO)CC3` [Example U-002], the IC50 (human topoisomerase I) was no more than 15 µM.

With `CC[C@@]1(O)C(=O)OCc2c1cc1n(c2=O)Cc2c-1nc1cc(F)c(C)c3c1c2[C@@H](NC(=O)CNC)CC3` [Example U-003] the IC50 (human topoisomerase I) was no more than 15 µM.

For `CC[C@@]1(O)C(=O)OCc2c1cc1n(c2=O)Cc2c-1nc1cc(F)c(C)c3c1c2[C@@H](NC(=O)c1cccc(N)c1)CC3` [Example U-004], the IC50 (human topoisomerase I) was no more than 15 µM.

Compound `CC[C@@]1(O)C(=O)OCc2c1cc1n(c2=O)Cc2c-1nc1cc(F)c(C)c3c1c2[C@@H](NC(=O)c1ccc(N)cc1)CC3` [Example U-005] has an IC50 (human topoisomerase I) of no more than 15 µM.

`CC[C@@]1(O)C(=O)OCc2c1cc1n(c2=O)Cc2c-1nc1cc(F)c(C)c3c1c2[C@@H](NC(=O)Cc1cccc(N)c1)CC3` [Example U-006] gave an IC50 (human topoisomerase I) of no more than 15 µM.

`CC[C@@]1(O)C(=O)OCc2c1cc1n(c2=O)Cc2c-1nc1cc(F)c(C)c3c1c2[C@@H](NC(=O)Cc1ccc(N)cc1)CC3` [Example U-007] showed an IC50 (human topoisomerase I) of no more than 15 µM.
